Laboratory results from a protein production outcome set (Wang et al. 2014).

Assay: label from the status in PepcDB records

MPSFLEISPDKLNRLIGTPGAPRIIDVRTDEDFALDPRLVPGSIRRDHAEVASWADSIDADAVVVVCHRGAKLSHGVAAYLRHAGIEAESLAGGFEAWAAAGPAVPEAKLEHHHHHH
protein production: failed

MDKILFDIALILIFTKIGSLISIHFKMPGVLGELIAGVILGPFILNLIQANADIKLLSDLGVVFLMFLAGIETNLDELKKAGKSSFLIALGGIIIPLIVGTLSAYMFFSNFYENLFVGVILTATSVSISVQTLTELGKLNTRSGINILGAAIIDDVLGLILITVVLAISGGTKSHGSSIFMTFIYIGIFCLVSLLAIAFLPKPIDKLTQKFKPQKGLAIFSIAAALICAFTAEKLGIAAITGAYICGLVLSPITHKEYIEKRVKIISTSFLSPIFFASVGISASVKGLNFEVLLITLIMFIIAVIGKILGCSASALTLKFKKSEALQIGVGMVSRGEVAIITANIGLQAKIISEEIFLPTLIVVILTTVITPILLKIVFSHKTQKLIDKETLT
protein production: failed

MTEHSLWRFSRALHRALNDRQTEELATIIDDNIDWAIYGPIDMFPFFGARQGKAAVLEVCRQIADSVRIYRYHRESVMLGIDSAASMVRYSLTAAGTNRPISVRMALFTQFQNGRLTNLRMVLDTFDLVEQALGRPIHLPKIA
protein production: not failed

MISTLNEIMKCIEDNDTIIIHRHVRPDPDAYGSQLGLKYYIQQKFPQKQVFAVGEAESSLSFIGELDNIDDKTYQDALVIVCDTANAPRIDDERYSTGSKLIKIDHHPAVDQYGDINLVNTNASSTSEIIYDLISHFNDEAIVNKDIASVLYLGIVGDTGRFLFNNTSEHTMEIAGKLIGHDIDHNALLNKMMEKDPKMLPFQGYVLQHFELMDDGFCQVKITEDVLEQFGIQPNEASQFVNTIADIKGLKIWVFAVDEGSEIRCRLRSKGQLIINDIAQDFGGGGHPNASGVSVNSWDEFEQLATALRTKLN
protein production: failed

MNLILYLVTVFVALFAMVNPIGALPVLVSVTEGYSKDDFERVVRYAAMSEALMLFSFMLIGIYIFEVLGININDFKVAGGVLLFKVAFDMLQGRTSTTKLTPAETEESIERTSIGIAPIGTPLLAGPGSITAAIIYFNSYSVNIPEKIAVVISVSLVVVISYFILHYSSVLFKYLGKTGSLIISRIMGLLLAAIAVDFMVTGLAFIVKSITGV
protein production: failed

MVLIYCYKYFHEFMEAFDRIQKNIMEAHMKKVIGAATATVFGLGAFTTTATAETIVTADVLNVREKPTTESKVVEKVKNGQELKVINTEDGWSKIELNGKEVFVSSEFTKDIYHVTANLLNVRTEANTESKILGRLKKDDVIESTNQVKDGWLQFEYKGKTAYVNVSFLSSTAPVEKKADEKTKQVAKVQKMVKAKEEAKTQKVTKAKETIKPKEEEKVQEVVKPKEEEKVQEVVKPKEEEKVQEVVKPKEEEKIQEVAKPKEEAKVQEVAKPKEEEKVQEVAKPKEEEKVQEVVKPKEEEKVQEVAKSKEEAKVQEVAKPKEEAKVQEVVKPKEEAKVQEEAKAQEIAKAKEEAKAQEIAKAKEEEKAREIAKAKEEAKAQEIAKAKEEAKAQEIAKAKEEAKAQEIAKAKEEEKAREIAKAKEEAKAQEIAKAKEEAKAREIAKAKEEAKAREAIKAKEESKNNTQSAKRELTVVATAYTADPSENGTYGGRVLTAMGHDLTANPNMRIIAVDPKVIPLGSKVWVEGYGEAIAGDTGSAIKGNRIDVLMGSKSKAMDWGRQTVKVKIL
protein production: failed

MKLEKLIPWLAGGLAVVGAAIAVIPPSPVRGFDTDAFGRLPVLEGGRVKPVDSVSRNALLMIRGQQSFRYDPDGDGPQKGRTISSDEWILDVLFRPELADQYPVFVINDPEVLGLMGMRQSSNRYFAFSALVPHLEEIQKQAMAAHQVDAKQRTRFQSAIANLFERVYLYYRLKNTVQLAGSPGLAAEVASAGTPGAQQRHQAIEELAYFRPIPPAAGTTGDDWLNMGQALRGAASGQVGDALSGWARLSVAYMAQDPSSFGRAVADVTAADAAARPDSIDLAGHEIVFNRAQPFYAGMVVYVLAMLALFASWLWKPKILQPAAYGLLVAGALIHTLGLVSRVLLQGRPPVTNLYSSAVFVGWGAVVLGVILERIYRKGFATAVAAASGFASLIVAHHLSGDGDTMEMMRAVLDSNFWLATHVVTITIGYSGTFLAGAMAIGYTLRKHLVRKPDPGTTKALMGMTYGVICFALFFSFLGTVLGGIWADQSWGRFWGWDPKENGALLIVLWNAIILHARWGGFVRERGIMAMAIFGNVITSLSWFGVNMLGVGLHSYGFMDSAFWALTGFIASQLAIMAFTLLPAQFWRTAHAAGKQQEPSPEPGH
protein production: failed

MNFISDQVKKLSSSTPEEPDHNKPVEGTETATRPATNAELMASAKVVAEAAQAAARNESDKLDKGKVAGASADILDAAEKYGKFDEKSSTGQYLDKAEKYLNDYESSHSTGAGGPPPPTSQAEPASQPEPAAKKDDEESGGGLGGYAKMAQGFLK
protein production: failed

MIYEGAVFRPPSEASSLILQVSLGCRHNQCTFCSMYKGKSFRIRSIEEIMDMIDAGSKAYPHMERIFLADGDALAVETDVLSNVLETLYQRFPRLKRVGIYGGPKDILEKSPAELARLKEQGLSIVYLGVESGSGLILNLIRKGVTPEEMINAGQKVVASGLKLSCTIILGLGGRERSPEHAVETGKVISAINPHYLGALTLMLAPDAPLTQKIKSGEFTPLNKWESLIELELMVQGLNLKDCLFRSNHASNYLPLKAHLPHDKATLLSTLKEVIEENREEVLRPEYWRGL
protein production: failed

MKANLERVPIRIGSSWRYKKIDGVEKNCHWHFHNEYELVLFRKNNAKGMVGHFERVIEKNTLWLIPPKMPHAIELLEEKELQCESHIIWLPKEWVENMIFSCTELRRMGELFKRSSNGLCFSTSTAEKVYQLIEKLFKDSILDDLGYLIQILGCLCSDKETRPLQLFSKQEASDKEGKEK
protein production: failed

MIKSILDYLLTLHPVLLGLLGSTFTWFTTAFGAAAVFFFRKVDNKIMDAMLGFSAGIMIAASFFSLIQPAIERAEELGYITWVPAVFGFLVGAFFIYIVDVFVPDLDKLTFIDEDLTKHGKKDFLLFTAVTLHNFPEGLAVGVAFGALASNPDIQTLVGAMLLTLGIGIQNIPEGAAISLPLRRGNVALAKCFNYGQMSGLVEIVGGLMGAYAVYSFTRILPFALAFSAGAMIYVSIEQLIPEAKRKDIDNKVPSIFGVIGFTLMMFLDVSLG
protein production: failed

MAPHPEAAALLARSHRLGADPRNTNYAGGNASAKGTATDPVTGGDVELMWVKGSGGDLGTLTEAGLAVLRLDRLHALKGVYPGVEREDEMVAAFDYCLHGKGGAAPSIDTAMHGLVDAAHVDHLHPDSGIALACAADGEKLTAECFGDSVAWVPWRRPGFQLGLDIAAVKEANPQTIGCVLGGHGITAWGATAEECERNSLHIIRTAEAFLAERGKAEPFGPLEHHHHHH
protein production: failed

MKTIRSIGRFAVLAAMAALFAGCAGQQVKSEQRFFWPPLPERPRIEWLNAYSSQNDFPKSATEKFLTTIIGEEEGISLSKPITVRSDGRGKVYVGDPGAPGVYVFDFVNNIMRPFGKAEAEARIEQPVGIAIDENGRIYVSDTKKAAIMVFHQDETPAALINLKGMVEKIGDIAYDRIGKHLLALDVRGHKVLVLSLRGELLSSFGNRGTKPGEFNFPSALTVNNKGEIIVADAMNARIQIFSSDGKFLRMFGQRGDSPGTLQLIKGVAVDSDDNIYVTDGKGHKFEIFSTTGDYLLTVGGAFSALTTGKTAPGGFVIPQGIDIDKDNMIYVVDQLNRRFQVFRYISDSYLKANPIPGYTPSP
protein production: failed

MAGKRKSRRGFGRVRKLPSGRFQARYPGPDGVLRPADRTFATTTDADRWLMRKRIEIEEGCWLDPAEGQTTVRDWAARWLAAVSPQLKHKTQASYRSLINSLINPVLGDRELSSLRPITVTEWVGAMRTKGLSASRIRQAYRVLSQIMRSAVDNDMIPQTPCRGVRLPRMPQTEPHILTPLEASRIVKGATKPHDLLIALLAYAGLRVGEAFALRRVDVDVSGGFVLVDENLAEANGVLVFDTPKSHQKRLLRVGPSLAKRLGRHLETLPGGDDALLFTTPGGKPLRYNQWRKAYFDPAVSAAGLTDVTPHDLRASHGTWVADRYGVMTAAHRLGHSNASVTTRHYARPVAGRDDQVAEAADSWLSGSEDNDDGSAAVPA
protein production: failed

MKRKTAVKWLAVLAGAGLLYWGNKTYLNVSPKEIRVWVLSFGVFAPLMFIGISIVRPLVLFPVSVISIAGGLAFGPLLGTLYTLFGSMCASAVSFFAAGLFSAKKNGHYERLEAIQKQMEDNGFFYIFLLRILPINFDFVSYAAGLSNVKALPYFAATAVGIIPGTIALNVLGASFLAGNLPAFFMVLALYIVFISLPFIFRKKMQNLFQESN
protein production: failed

MTSGTSVINDKVLQYETFISEVLRRDLQKVLEQRDAVYEKIAQYLQLKNTIQSIQESGSKELKTDVDLGCNFYVQAHVPDASRIYVAVGYGFFVEFTHAEALKFIEKKTNQLTEYTEVLTKDAAKIKANIRMVLEGLRELQGLKDLPEDRRREVF
protein production: not failed

MDLLQFLIDKNNVFIVAVAVVSGIMLMLPALRKGRAGAAVGTSEAIQMVNQRQAVWVDVRPTEQFQAGHIAQARSLPAADLEKKAGALPKNKPLIVVCEQGRDAARIAARLRSQGFAEVSVLEGGMRAWFAAGLPVTQKG
protein production: failed

MDNKVILVGGFHEIIELCEDNDIEIAGIIDNYLTNDTYWGYPIIGTDDKAKVLFETYKNVPVLITPDVPHVRYKLYHYYKSIGFQVASLISRDASISRSAIIGEGTIIQRGANLSSNIKIGQMVKVNTNANIMHDCLIGNYVTVAPNAVLLGKVEIDDKAYIGANATLLPSVKIGENVTVGAGSVVTKSVRLEHHHHHH
protein production: failed

INRRRDSKQMTEHNLSVVNTATLYIVPTPIGNLGDITQRAIEVLKSVDLIAAEDTRHTGKLLSHFGIASQTFALHDHNEQHKADLLISKLQQGLSIALVSDAGTPLISDPGYHLVNRCRQANVNVVPLPGA
protein production: failed

MTVLYKGSLKQNNDPFHVTLLSKEHIEQILFLQNVVVEGLEDKSRLQPLSQEEFQYILEGNGMMIGAFIKNELIAFRALLVPPIDDEHLGLDIGLPESELHRVIYQEISNVHPNCRGNGMQKILATVIMDELQKENGKYDYVCCTVAPFNIPSLKDKFSQGMEIAALKEKYGGSMRYVFVKELREDKEKDWTEIKSVPMNNAGGQQALLSEGYRGYEMEKVDEDFVVKFGR
protein production: failed

MASREVSITRISPLATFRVALAMSIIGLVAWIICVTVLYFGLNVAGVWQNFNDVIGGVGAEQTITFGLVLSISALLGAIGAITVAVLAPLCAIIYNSIVDLFGGLQIQLQEEVD
protein production: failed

MTSSSPPAIPADARRQHAERTTLVSAAVNCALSAGQIAAGLWSHSQGLVADGLHTLSDLIADGIVFIANRNSHKGPDEDHQYGHARYENAASLGLGLLLMAAGAGMIWSALASLSAPHGAAPVHGLALWVALAALAAKEGLFRYMLAVARRIGSRMLVANAWHARSDAVSSLVAAVGVAGNLMGFRWLDPVAACVVGAMIGRVGIRFGWEALNDLMDRALPPAQVQAIRASLAATPGVINVHDLRTRVTGDQALVDAHIEVDPRVSVSEGHAIAVRARANVLAAHTAMAVLDVQLHVDPRERVYTDPLPLPDRDALCAVLAQALPPGTPLDARHCLLHYVEGGVEVDLILPPSLADHAAPVAETVRARWHGRVRLRALTAASGATARGPVRP
protein production: failed

GRPDGPVRTKKLKRGRPGRKKKKVLGCPAVAGEEEVDGYETDHQDYCEVCQQGGEIILCDTCPRAYHLVCLDPELDRAPEGKWSCPHCEKEGVQ
protein production: failed

MSMSSSSSICGDEDGDLLLDEEEEIDFYAILNVPKDATDDEIIKAYRKRCLMFHPDRFVDNDEKKDAERVFVKLRRAHEVLLDPKQRAIYDALGVQGLDTQGWEL
protein production: not failed
